In the supplement of paper PMC10567573:

B1: ESR2 (parent)
chain: KSCQACRLRKCYEVGMVKCGSRRE

Variants of: B1
Assay: protein stability index of a GFP-peptide fusion (GPS, HEK-293T) (PSI 1-6); higher = more stable
Conditions: c terminus: a fixed tail appended
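Further: lentivirally expressed fusions sorted by FACS into six bins by GFP to DsRed ratio, PSI derived from sequencing read proportions per bin multiplied by bin number.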

Protein stability index, by site and new letter:
S21: T 2.31; M 2.13; L 2.44; A 2.24; D 1.75; F 1.5; N 2.57; Y 1.76; P 2.29; R 2.09; V 1.56; C 3.46; G 1.89; E 2.25; H 2.65; K 2.39; I 1.69; Q 1.32; W 1.5
R22: Y 1.66; G 1.99; V 1.97; M 2.21; F 1.41; W 2.05; D 3.02; T 1.92; S 1.91; H 1.97; E 2.98; N 1.91; C 3.45; A 1.88; K 2.35; L 1.33; P 2.33; Q 2.04; I 1.83
G15: Q 1.49; P 2.35; R 1.91; E 1.38; N 1.97; A 1.69; V 1.25; Y 1.81; H 1.86; D 2.19; L 1.55; I 1.79; M 1.96; F 2.41; K 2.18; S 1.34; T 2.03; C 2.25
Y12: I 1; H 2.03; K 2.11; F 1.77; G 2.36; P 2.13; V 2.19; A 2.9; W 2.24; R 1.9; T 2.77; S 2.29; E 2.85; M 1.41; D 1.83; N 2.43; C 2.78; L 1.89; Q 2.06
R23: H 1.96; F 2.51; V 2.41; P 2.2; G 1.79; E 2.33; M 1.98; A 1.61; D 2.48; L 1.58; Q 2.21; N 2.17; C 2.39; W 1.67; K 1.96; I 2.43; S 2.25; Y 2.09; T 1.85
C11: K 2.3; G 2.4; N 1.78; R 2.5; I 2.19; F 2.52; E 1.57; S 1.68; V 2.47; A 1.82; W 2; D 2.72; L 2.31; H 1.74; Q 1.79; M 2.6; T 2.29; P 1.38
R9: T 2.66; Y 2.38; W 1.93; C 1.61; M 1.93; K 2.04; H 1.92; L 2.14; V 2.13; G 1.95; P 2.35; F 2.56; I 1.82; N 1.88; Q 1.99; S 1.8; D 1.75; A 1.1; E 2.03
V17: K 2.54; D 1.6; Y 1.78; G 2.27; C 3.72; E 1.89; W 1.86; I 2.21; N 3.53; F 1.94; A 2.41; P 1.82; R 1.82; Q 2.1; L 1.61; S 2.16; T 1.98; H 2.97; M 2.37
K18: C 2.16; L 1.73; R 2.31; I 1.49; G 1.8; S 2.85; P 1.72; E 2.09; Q 1.7; D 2.2; F 1.51; M 1.67; H 2.33; T 1.82; A 1.89; N 2.39; W 1.35; V 2.79; Y 1.49
M16: H 2.82; A 1.76; Y 1.85; T 2.14; N 2.15; K 2.67; P 1.96; C 3.01; I 1.13; E 1.84; L 2.22; Q 1.95; G 2; W 1.88; D 1.66; F 2.1; V 1.74; S 2.44; R 2.4
R7: N 1.77; V 1.89; D 2.06; C 2.5; F 2.29; I 1.64; Q 1.66; H 1.81; G 2; T 2.46; E 2.69; A 1.32; L 1.74; Y 2.58; W 1.89; P 2.17; S 1.89; M 1.48; K 2.03
C6: N 2.94; Y 2.28; P 3.03; T 2.62; M 2.44; S 2.25; V 2.42; W 2; Q 2.94; R 3.05
K10: F 1.26; S 2.69; V 1.89; W 1.74; E 2.12; P 1.94; H 2.16; N 2.27; A 1.81; I 1.98; T 2.23; Y 1.79; L 2.24; G 1.78; C 1.5; R 1.56; M 1.48; D 1.49; Q 1.68
E13: S 2.42; Q 1.7; V 1.6; K 1.99; R 1.95; W 1.49; A 1.93; T 1.96; N 1.93; C 2.46; P 1.69; H 2.89; F 2.23; G 2.3; M 1.7; I 2.03; L 1.64; Y 1.38; D 1.88
G20: F 2.01; A 1.91; V 1.87; C 1.95; L 1.73; M 1.73; Y 2.15; W 1.48; I 2.16; R 2.49; D 1.87; S 1.81; H 2.75; Q 1.73; P 1.84; E 2.41; N 2.12; K 2.41; T 2.19
E24: C 2.28; A 2.44; D 2.28
C19: L 1.89; R 2.52; Y 1.43; Q 1.53; W 3.71; D 2.51; F 1.86; T 2.81; G 2.11; I 1.4; E 2.43; P 2.28; A 2.18; N 2.04; K 1.76; M 1.9; S 1.61; H 1.94; V 1.89
V14: W 1.92; E 1.9; F 1.57; I 1.67; N 2.34; T 1.96; K 2.5; Q 2.17; R 2.27; C 2.17; H 4.01; Y 1.7; A 2.1; P 1.62; M 1.77; S 2.52; G 1.94; L 1.49; D 2.17
L8: W 1.87; G 2.36; N 2.74; T 2.11; E 2.47; F 2.21; M 2.24; Y 2.35; V 1.73; D 1.61; K 2.66; A 2.17; I 1.64; H 2.4; S 2.83; R 2.18; P 2.27; Q 1.84; C 2.61
